Experimental data published in the RNAGym collection of RNA variant scans (doi:10.1073/pnas.2313332121).
Variants at the floor of the assay were thinned out.

B1: TPR 5TU (parent)
chain: GGAUCUUCUCGAUCUAACAAAAAAGACAAAUCUGCCACAAAGCUUGAGAGCAUCUUCGGAUGCAGAGGCGGCAGCCUUCGGUGGCGCGAUAGCGCCAACGUUCUCAACUAUGACACGCAAAACGCGUGCUCCGUUGAAUGGAGUUUAUCAUG

Variants of: B1
Assay: polymerase ribozyme fitness, log enrichment relative to wild type (log ratio); higher = more active; in vitro selection for triplet polymerase activity
Summary of the method: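 In triplicate, a single round of in vitro selection was run on each mutant library, PCR-built and transcribed, covering one subunit of a heterodimeric triplet polymerase ribozyme. Frozen incubation at −7 °C followed annealing with a biotinylated primer, partner subunit and triplets, and extended constructs were then gel-excised, streptavidin-captured and taken through RT-PCR. Fitness is the logarithm of genotype enrichment over wild-type enrichment, from inverse-variance-weighted replicate averages of Illumina-sequenced inputs and outputs. […] only genotypes with ≥10 input reads and ≥1 read per output were kept.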

Polymerase ribozyme fitness (log ratio), -3.46:
U7C U53A C85U

Polymerase ribozyme fitness (log ratio), -3.47:
U7C C85G

Polymerase ribozyme fitness (log ratio), -2.97:
U7G A21U

Polymerase ribozyme fitness (log ratio), -4.07:
U6C C38U A121U U127A G128U

Polymerase ribozyme fitness (log ratio), -3.89:
U7G A17C A142U U146C

Polymerase ribozyme fitness (log ratio), -4.06:
C8U U15A A41U C85A G126A

Polymerase ribozyme fitness (log ratio), -2.48:
U6C A49U C63G

Polymerase ribozyme fitness (log ratio), -2.03:
U6G C38A A41C C95U U104C G126U

Polymerase ribozyme fitness (log ratio), -2.42:
U7C G50U

Polymerase ribozyme fitness (log ratio), -0.0461:
U6G A142U

Polymerase ribozyme fitness (log ratio), -3.72:
C8A G86U
U7A C87U C96A A150U

Polymerase ribozyme fitness (log ratio), ≤ -4.2:
C8U C63U C72U C123U G126U
U7A C32U C35U U90C G141C G143C
C8G G81C G86A C132A
C8U C38G A60C A107G G141C U151C
U7C U13G A20C U31A C51U U53G C87G A89G C93U U139C A142U G143U G152A
U7A A28C C57U C87G C95U C125A
C8A C85U C116U G141A
C8G A39U G46U G68C C79U G83A U102A
U7A G25U A39C A49U C54G C95U U111G
U9A A40U G59U U134A
C8A C36U G62U C95G A115U
U6G G46U G88C U134A A138G
U9A A12U C114A C125A
U6C C76G G124U G128U
U9A A22G C36A A39C G65U C87U C95A G126A G136A U139C
C8G A47C G81C G84C G86U
C8G A41C C93G C103A A120U A142U
U9A C27G A73U C93U U102G G117C
C8U U31A C32G C54U G83U U104A A107C
C8A G62A G92A
U7A A29G C85A C114A A121G U134C
U7G C32U C38U U55G C57U U61A G62A G88A U146C
C8A C57A G74A C118U
U7G U13A A17U A98U A107C U146C
U6G A21U U45C A66U G141A U151A
C8G U15G A17G C18U A20C C32G A73G C93U C125U
C8A G42A A49C G83U C93A G94A
U7A G62C
U6G U7C A49G G71A C93G
U7C C35A C87A C95U C116G
C8U A20C G50A U82G C93U C95U A142G
U9A A28U A66G C79G C93U
U9A C27A A40U
U7G A39U C69U C95U C129G
U7G C75G G86C
U6G A20C C38U C57U U61A C76G G94C A97G U145G
U7A C38U G65A A107G G136U U146C
U6G A12U A22C G59C U61G A73U
C8G C10A A40C G67A C75A C87A
U7G A17C A39C A91G C114G
U6C C35G A66G C96U U109A G126U
U7G C27U A37G C43A C57A G94A
C8A A23C A26C U33C U78G A98G U144G
C8U A39U G48U U134A
C8G U31C C32G G48A A91U A122C G133A
C8U A17G C36A G50C A115G
C8U A22U A40U A47C
C8U C38U C69A G83A A91C C118U
U9A G48A G80C C87G A107U A113U
U7C C8U U45A G68C C87G A91C
U9A A20U C36A A52C A113U G124C
U6G U31G A73G G86A A137U
C8A A23C C38U A142G
C8A C57G U82A A98G
C8A G70C A89G G94C C116A A137G
U7C U53G G94A
U6C C10G A28U C57U C63U U77A C85U G86U U144C
C8G A41U A49G C95U A147U
C8A A24U G71A G84A G143C
U9A A16C C85A C87A
U7C A113G U139C
U7A G11U G50A A64G G68A C72U C87U A115U A122G C149A U151A
U6C C27G C32A U53A A142U C149G
U7A C72G G80C C96U U104C A122G U146A
C8G A16U C36G
U6G A52C U55C G71A G86C A119U

Polymerase ribozyme fitness (log ratio), -2.04:
U7C C85U

Polymerase ribozyme fitness (log ratio), -2.77:
U7G C38U

Polymerase ribozyme fitness (log ratio), -2.08:
C8U C116A

Polymerase ribozyme fitness (log ratio), -3.75:
U6C U45A

Polymerase ribozyme fitness (log ratio), -2.73:
U7A C96U
